Test results: patent US20220112288A1 (published 2022)

Target: T1, human CD4 on human PBMCs (human, UniProt P01730 26-458)
T1 construct: whole, on cells; the CD4-positive gate was set with the control antibodies OKT4 and RPA-T4; also called hCD4
Assay: FACS, clonal hybridoma supernatant on PBMCs

Binder | % CD4 Stain [%] | gMFI of CD4+ [gMFI]
75110_04H17A (antibody, V domains shown, Tested as clonal hybridoma supernatant of an AlivaMab Mouse Kappa antibody (human variable regions, kappa; detected with anti-mouse Fc)) VH: QVQLQESGPGLVKPSETLSLTCTVSGGSISTYYWSWIRQSAGKGLEWIGRIYTSERPNYNPSLKSRVTMSVDTSKNQFSLKLNSVSAADTAVYYCARELERPYYYGMDVWGQGTTVTVSS VL: DVQMTQSPSSLSASVGGRVTITCQASQDISNYLNWYQQKPGKAPKLLIYYASNLETGVPSRFSGSGSGTDFTFTISSLQPEDFATYYCQQYDNLPLTFGGGTKVEIK | 28.8 | 151000
75110_03L12A (antibody, V domains shown, Tested as clonal hybridoma supernatant of an AlivaMab Mouse Kappa antibody (human variable regions, kappa; detected with anti-mouse Fc)) VH: QVQLQQWGAGLLKPSETLSLTCAVYGGSFSGYYWSWIRQPPGKGLEWIGEINHSGSTNYNPSLKSRVTISVDTSENQFSLTLISVTAADTAVYYCVRLINWFDPWGQGTLVTVSS VL: DIQMTQSPSSVSASVGDRVTITCRASQDISNWLAWYQQKPGKAPKLLIFAASSLQSGVPSRFSGSGSGTDFTLTISSLQPDDFATYYCQQANSFPYTFGQGTNLGIK | 36.8 | 162000
75110_04F22A (antibody, V domains shown, Tested as clonal hybridoma supernatant of an AlivaMab Mouse Kappa antibody (human variable regions, kappa; detected with anti-mouse Fc)) VH: EVQLVESGGGLVQPGGSLRLSCAASGFTFSSYDIHWVRQATGKGLEWVSTIGTAGDTYYPGSVKGRFTISRENAKNSLYLQMNSLRAGDTAVYYCARGGYYYYGMDVWGQGTTVTVSS VL: EIVLTQSPGTLSLSPGERATLSCRASQSVYSSYLAWYQQKPGQAPRLLIYGASSRATGIPDRFSGSGSGTDFTLTISRLEPEDFAVYYCQQFGTSPFTFGPGTKVDIK | 37.7 | 216000
75110_04G16A (antibody, V domains shown, Tested as clonal hybridoma supernatant of an AlivaMab Mouse Kappa antibody (human variable regions, kappa; detected with anti-mouse Fc)) VH: QVQLQESGPGLVKPSQTLSLTCTVSGDSISSGYYYWSWIRQHPGKGLEWIGYISYSGSTYYNPSLKSRLTISVNTSKNQFSLKLSSLTAADTAVYYCARDRPSNFDAFDIWGQGTMVTVSS VL: EIVLTQSPGTLSLSPGERATLSCRASQSVGSTYLAWYQQKPGQAPRLLIYGAFSRATGIPDRFSGSGSGTDFTLTISRLEPEDFAVYYCQQYGSSPLTFGPGTKVDIK | 36.3 | 240000
75110_04G02A (antibody, V domains shown, Tested as clonal hybridoma supernatant of an AlivaMab Mouse Kappa antibody (human variable regions, kappa; detected with anti-mouse Fc)) VH: not shown VL: DIVMTQSPDSLAVSLGERATINCKSSQSVLYSSNNKNYLAWYQQKPGQPPKLLFYWASARESGVPDRFSGSGSGTDFTLTISSLQAEDVALYYCQQYFGSFPTFGQGTKLEIK | 38.5 | 187000
75110_04D20A (antibody, V domains shown, Tested as clonal hybridoma supernatant of an AlivaMab Mouse Kappa antibody (human variable regions, kappa; detected with anti-mouse Fc)) VH: QVQLQESGPGLVKPSETLSLTCTVSNGSISDYYWSWIRQPAGKGLEWIGRIYTSGSTNYNPSLKSRITMSVDTSKNQFSLELSSVTAADTAVYYCARELERYYFYGVDVWGQGTTVTVSS VL: not shown | 33.2 | 241000
75110_03I23A (antibody, V domains shown, Tested as clonal hybridoma supernatant of an AlivaMab Mouse Kappa antibody (human variable regions, kappa; detected with anti-mouse Fc)) VH: QVQLQESGPGLVKPSETLSLTCTASGGSITSYYWNWIRQPAGKGLEWIGRIYTSGSTNYNPSLKSRVTMSVDTSKNQFSLKLSSVTAADTAVYYCARDPGYSDAFNIWGQGTMVTVSS VL: not shown | 26.2 | 67900
75110_03I08A (antibody, V domains shown, Tested as clonal hybridoma supernatant of an AlivaMab Mouse Kappa antibody (human variable regions, kappa; detected with anti-mouse Fc)) VH: QVQLQESGPGLVKPSETLSLTCTVSGGSISSYYWSWIRQPPGKGLEWIGYIYYSGSTNYNPSLKSRVTISVDTSKNQFSLKLSSVTAADTAVYYCAREGEQWFYGLDVWGQGTTVTVSS VL: EIVLTQSPGTLSLSPGERATLSCRASQSVSSTYLAWYQQKPGQAPRLLIYGSSSRATGIPDRFSGSGSGTDFTLTISRLEPEDFAVYYCQQYGNSFPITFGQGTRLEIK | 17.8 | 26100
75110_04B08A (antibody, V domains shown, Tested as clonal hybridoma supernatant of an AlivaMab Mouse Kappa antibody (human variable regions, kappa; detected with anti-mouse Fc)) VH: QVQLVESGGGVVQPGRSLRLSCTASGFNFINYGIHWVRQAPGKGLEWVTIIWYDGSKKYYADSVKGRFAISRDNSKNTLYLQMNSLRAEDTAVYYCAREDDWNDGLAYWGQGTLVTVSS VL: AIQMTQSPSSLSASVGDRVTITCRASQDIRNDLGWYQQKPGKAPNLLIYAASNLQSGVPSRFSGSGSGTDFTLTISSLQPEDFATYYCLQDSNYPRTFGQGTKVEIK | 40.6 | 246000

Further lines, results first:

% CD4 Stain [%] | gMFI of CD4+ [gMFI] | Binder
33.1 | 270000 | 75110_06C16A (antibody, V domains shown, Tested as clonal hybridoma supernatant of an AlivaMab Mouse Kappa antibody (human variable regions, kappa; detected with anti-mouse Fc)) VH: QVQLQESGPGLVTPSETLSLSCTVSGGSISDYYWSWIRQPGGKGLEWIGRIYSSGSTNYNPSLKSRVTMSVDTSKNQFSLKLSSVTAADTAVYFCARDREDYYYYGMDVWGQGTTVTVSS VL: DIQMTQSPSSLSASVGDRVTITCQASHDISNYLNWYQQKPGKAPKLLIYAASNLETGVPSRFSGSGSGTDFSFTISSLQPEDIATYYCQQYDHLPLTFGGGTKVEIK
35.9 | 246000 | 75110_05A11A (antibody, V domains shown, Tested as clonal hybridoma supernatant of an AlivaMab Mouse Kappa antibody (human variable regions, kappa; detected with anti-mouse Fc)) VH: EVQLVESGGGLVKPGGSLTLSCAASGFTFSNTWMSWVRQAPGKGLEWVGRIKSKIDGGTTDYAAPVKGRFTISRDDSKNTLYLQMNSLKTEDTAVYYCTTSGTYSSGWGLFDYWGQGTLVTVSS VL: DIQMTQSPSSLSASVGDRVTITCQASQDISNYLNWYQQKPGKAPKLLIYDTSNLEAGVPSRFSGSGSGTHFTLTISSLQPEDIATYYCQQYDNLPFTFGGGTRVEIK
38.9 | 257000 | 75110_05E13A (antibody, V domains shown, Tested as clonal hybridoma supernatant of an AlivaMab Mouse Kappa antibody (human variable regions, kappa; detected with anti-mouse Fc)) VH: EVQLVESGGDLVKPGGSLRLSCAASGFSFSNAWMSWVRQAPGKGLEWVGRVESKTDGGTTDYAAPVKDRFTISRDDSKYTLYLQMNSLKTEDSAVYYCTIGGGFGLELYGFFDYWGQGTLVTVSS VL: DIQMTQSPSTLSASVGDRVTITCRASQSISSWLAWYQQKPGKAPMLLIYKASSLESGVPSRFSGSGSGTEFTLTISSLQPDDFATYYCLQYNSYYTFGQGTKLEIK
55.8 | 135000 | 75110_05B13A (antibody, V domains shown, Tested as clonal hybridoma supernatant of an AlivaMab Mouse Kappa antibody (human variable regions, kappa; detected with anti-mouse Fc)) VH: QVLLEQWGAGLLKPSETLSLTCAVYGGSFSGYYWTWIRQPPGKGLEWIGEINHRGSTNYNPSLKSRVTISIDTSKNQFSLKVKSVTAADTAMYYCTRPDSNWFDPWGQGTLVTVSS VL: DIQMTQSPSSVSASVGDRVTITCRASQDISNWLAWYQQKPGKAPKLLIFAASSLQSGVPSRFSGSGSGTDFTLTISSLQPEDFATYYCQQANSFPLTFGGGTKVEIK
36.4 | 128000 | 75110_04P08A (antibody, V domains shown, Tested as clonal hybridoma supernatant of an AlivaMab Mouse Kappa antibody (human variable regions, kappa; detected with anti-mouse Fc)) VH: QVQLQQWGAGLLKPSETLSLTCAVYGGSLSGYYWSWIRQSPGKGLEWIGEINQSGSTNYNPSLKSRVTISVDTSKDQFSLRLTSVTAADTAVYYCTRVLNWFDPWGRGTLVTVSS VL: DIQMTQSPSSVSASVGDRVTLTCRASQDISNWLAWYQQKPGKAPKLLIYAASSLQSGVPSRFSGSGSGTDFTLTISSLQTEDFATYYCQQANSFPYTFGQGTKLEIK
37.1 | 155000 | 75110_05F19A (antibody, V domains shown, Tested as clonal hybridoma supernatant of an AlivaMab Mouse Kappa antibody (human variable regions, kappa; detected with anti-mouse Fc)) VH: EVQLVESGGGLVQPGGSLRLSCAASGFTFSNYDVHWVRQPTGKGLEWVSTIGTAGDTYYPGSVKGRFTISRENAKNSLYLQMNSLRAGDTAVYYCARGGYDYYGLDVWGQGTTVTVSS VL: not shown
38.1 | 112000 | 75110_05K11A (antibody, V domains shown, Tested as clonal hybridoma supernatant of an AlivaMab Mouse Kappa antibody (human variable regions, kappa; detected with anti-mouse Fc)) VH: EVQLVESGGGLVQPGGSLRLSCAASGFTFSSYDMHWVRQPTGKGLEWVSTIGTAGDTYYPASVKGRFTISRENAKNSLYLQMNSLRAGDTAVYYCARGGFYYYGMDVWGQGTTVTVSS VL: EIVLTQSPGTLSLSPGERVTLSCRASQSVSNTYLAWYQQKPGQAPRLLIYGASSRATGIPDRFSGSGSGTDFTLTISRLEPEDFVVYYCQQHGSSPFTFGPGTKVDIK
36.9 | 241000 | 75110_04P06A (antibody, V domains shown, Tested as clonal hybridoma supernatant of an AlivaMab Mouse Kappa antibody (human variable regions, kappa; detected with anti-mouse Fc)) VH: EVQLVESGGGLVQPGGSLRLSCAASGFTFSNYDMHWVRQATGKGLEWVSTIGTAGDTYYPGSVKGRFTISRENAKNSLYLQMNSLRAGDTAVYYCARGGDYYYGMDVWGQGTTVTVSS VL: EIVLTQSPDTLSLSPGERATLSCRASQSLSSVYLAWYQQKPGQAPRLLIYGASSRATGIPDRFSGSGSGTDFTLTINRLEPEDFVVYYCQQYGSSPFTFGPGTKVDIK
31.8 | 64000 | 75110_05E05A (antibody, V domains shown, Tested as clonal hybridoma supernatant of an AlivaMab Mouse Kappa antibody (human variable regions, kappa; detected with anti-mouse Fc)) VH: QVQLQESGPGLVKPSETLSLTCTVSGGSIGSYYWSWIRQPAGKGLEWIGRIYTSGSTNYNPSLKSRVTMSFDTSKNQFSLKLNSVTAADTAVYYCATDGGVGDSLDYWGQGTLVTVSS VL: DIVMTQTPLSLPVTPGEPASISCRSSQSLLDSDDGNTYLDWYLQKPGQSPQLLIYTLSYRASGVPDRFSGSGSGTDFTLKISRVEAEDVGVYYCMQHIEFPFTFGPGTKVDIK
31.6 | 326000 | 75110_05G15A (antibody, V domains shown) VH: QVQLQESGPGLVKPSQTLSLTCTVSGGSISSGGYFWSWIRQHPGKGLEWIGCIYYSGSTYYIPSLKSRVTISVDTSKNQFSLKLRSVTAADTAVYYCARDGYDYWYFDLWGRGTLVTVSS VL: not shown
35.6 | 149000 | 75110_04K10A (antibody, V domains shown, Tested as clonal hybridoma supernatant of an AlivaMab Mouse Kappa antibody (human variable regions, kappa; detected with anti-mouse Fc)) VH: EVQLVESGGGLVQPGGSLRLSCAASGFTFSSYWMSWVRQAPGKGLEWVANINQDGSEKYYVDSVKGRFTISRDNAKNSLYLQLNSLRAEDTAMYYCAREGGQWLSLDYWGQGTLVTVSS VL: DIQMTQSPSSVSASVGDRVTITCRASQGISSWLAWYQQKPGKAPKVLIYGVSSFQSGVPSRFSGSGSGTDFILTISSLQPEDFATYYCQQANSFPWTFGQGTKVEIK
37.9 | 156000 | 75110_05L07A (antibody, V domains shown, Tested as clonal hybridoma supernatant of an AlivaMab Mouse Kappa antibody (human variable regions, kappa; detected with anti-mouse Fc)) VH: EVQLVESGGGLVQPGGSLRLSCAASGFTFSSYWMSWVRQAPGKGLEWVANINQDGSDKYYVDSVKGRFTISRDNVKNSLYLQINSLRAEDTAVYYCAREGGQWLTLDYWGQGTLVTVSS VL: not shown
